# In publication PMC7519114:
# Tests used:
# [1] = biological target: ACKR3 of primary mouse astrocytes (mouse (endogenous in primary astrocytes)) (UniProt P56485)
# [2] = biological target: ACKR3 of primary mouse astrocytes (mouse (endogenous in primary astrocytes)) (UniProt P56485); remark: listed apart in the source
# Sequence of UniProt P56485 (P56485 whole entry): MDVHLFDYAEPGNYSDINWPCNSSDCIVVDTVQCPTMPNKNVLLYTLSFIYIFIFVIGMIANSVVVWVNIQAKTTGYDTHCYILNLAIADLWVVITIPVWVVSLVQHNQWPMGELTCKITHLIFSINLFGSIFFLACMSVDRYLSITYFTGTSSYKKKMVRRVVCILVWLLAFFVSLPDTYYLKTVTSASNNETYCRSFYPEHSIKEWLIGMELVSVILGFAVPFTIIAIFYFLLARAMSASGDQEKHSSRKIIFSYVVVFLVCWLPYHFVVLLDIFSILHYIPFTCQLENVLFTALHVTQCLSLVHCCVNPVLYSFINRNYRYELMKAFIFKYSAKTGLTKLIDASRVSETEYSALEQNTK
"junctional current (Ij) magnitude in astrocyte cell pairs (double patch-clamp), after bath-application of CXCL12 [1] [%]","inhibition of forskolin-induced cAMP production in astrocytes, CXCL12 (10 nM) [2] [% inhibition]","inhibition of forskolin-induced cAMP production in astrocytes, CXCL12 after pre-treatment with the CXCR4 antagonist AMD3100 (1 μM, 30 min) [2] [%]","junctional current (Ij) magnitude in astrocyte cell pairs (double patch-clamp), after bath-application of CXCL11 [1] [%]",Molecule
56.5,40.8,44.9,,Human/Feline/Rhesus Macaque CXCL12 (from UniProt P48061 22-93) (ligand)
,,,52,Recombinant mouse CXCL11 (ligand) FLMFKQGRCLCIGPGMKAVKMAEIEKASVIYPSNGCDKVEVIVTMKAHKRQRCLDPRSKQARLIMQAIEKKNFLRRQNM
